Values of other authors as cited in paper PMC9414616.

Biological target: NTSR2 (UniProt O95665)
UniProt O95665, sequence (O95665 whole entry): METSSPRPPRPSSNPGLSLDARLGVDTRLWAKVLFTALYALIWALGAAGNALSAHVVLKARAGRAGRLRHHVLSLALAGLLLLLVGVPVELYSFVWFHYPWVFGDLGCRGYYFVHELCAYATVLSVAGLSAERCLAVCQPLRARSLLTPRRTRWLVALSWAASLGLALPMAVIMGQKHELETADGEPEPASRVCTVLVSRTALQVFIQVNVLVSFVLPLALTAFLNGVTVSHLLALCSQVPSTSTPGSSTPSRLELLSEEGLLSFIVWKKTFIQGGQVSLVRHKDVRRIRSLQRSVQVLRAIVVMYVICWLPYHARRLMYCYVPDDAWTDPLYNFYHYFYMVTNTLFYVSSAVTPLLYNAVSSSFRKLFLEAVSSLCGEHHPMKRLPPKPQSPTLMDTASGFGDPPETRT

Substance: neurotensin (from UniProt P30990)
- Kd: 4 nM
